Measurements taken from patent US20220049012A1 (NAVI BIO THERAPEUTICIS, published 2022).

Legend:
[1] = target: recombinant CAIX extra-cellular domain (UniProt Q16790 38-414); test: competitive ELISA (Friguet), soluble CAIX ECD against coated CAIX ECD
Method: To determine the binding affinity of the anti-CAIX scFvs, competitive ELISA was performed. The CAIX ECD fragment proteins in 2-fold serial dilution (100-13 μg/ml) were pre-incubated with anti-CAIX scFvs (NAVICA9S1: 0.62 μg/ml, NAVICA9S2: 0.32 μg/ml,
NAVICA9L2: 0.16 μg/ml, NAVICA9L3: 0.32 μg/ml) at 1:1 volume ratio at room temperature for 1 hour. The mixtures were then added into ELISA plate coated with CAIX ECD fragment proteins (0.25 or 0.5 μg/well). After 1 hour incubation, the mouse anti-HA IgG (1:5,000) and HRP-conjugated rabbit anti-mouse IgG (1:10,000) were added as the secondary and third antibodies. Following the incubation and washing, 3,3′,5,5′-Tetramethylbenzidine (TMB) was added for color development, which was stopped by HCl and detected using an ELISA plate reader. The Kd values of scFvs were estimated and expressed by molarity (M) as described by Friguet et al. (J. Immunol. Methods, 77: 305-319, 1985). N/A: not available.

[2] = target: recombinant CAIX fragment 2 (UniProt Q16790 154-353); test: binding to recombinant CAIX fragments, epitope mapping
[3] = target: T1, recombinant CAIX fragment 3 (UniProt Q16790 228-414, limits assumed); test: as above
T1 construct: domain: fragment 3(F3); Expressed in E. coli from pET-21a(+) or pET-32a(+); also called F3; CAIX F3

Row | Binder | Kd [1] | binding result [2] | binding result [3]
1 | NAVICA9S1 (scFv, V domains shown, Chicken scFv from phage display, expressed in E. coli; also called anti-CAIX scFv NAVICA9S1; clone NAVICA9S1; not shown: linker; tags from the pComb3X vector (purified on Ni2+ Sepharose, detected with anti-HA)) VH: AVTLDESEGGLQTPGGALSLVCKASGFTFSSYAMNWVRQAPGKGLEFVAGITNTGSSAGYGAAVKGRATISRDNGQSTVRLQLNNLRAEDTATYFCTKSYGGWCDHACAPDDIDTWGHGTEVIVSS VL: ALTQPSSVSANPGETVKITCSGGGKNYGWYQQKSPGSAPVTVIYLNDKRPSNIPSRFSGSKSGSTHTLTITGVQAEDEAVYFCGSRDSSPTFGAGTTLTVL | 64.3 nM |  | 
2 | NAVICA9S2 (scFv, V domains shown, Chicken scFv; also called anti-CAIX scFv NAVICA9S2; clone NAVICA9S2; not shown: linker; tags from the pComb3X vector (purified on Ni2+ Sepharose, detected with anti-HA)) VH: AVTLDESGGGLQTPRGALSLVCKASGFTFSSFNMFWVRQAPGKGLEYVAAISSDGSRSRYGSAVQGRATISRDNGQSTVRLQLNSLRAEDTGTYYCAKRPYSGCTSNNFCFNAAYIDVWGHGTEVIVSS VL: ALTQPSSVSANLGETVEITCSGSSGSYGWYQQKSPGSAPVTVIYYNDKRPSDIPSRFSGSKSGSTGTLTITGVQAEDEAVYYCGSADRSGAGIFGAGTTLTVL | 11.5 nM |  | 
3 | NAVICA9L2 (scFv, V domains shown, Chicken scFv; also called anti-CAIX scFv NAVICA9L2; clone NAVICA9L2; not shown: linker; tags from the pComb3X vector (purified on Ni2+ Sepharose, detected with anti-HA)) VH: AVTLDESGGGLQTPGGGLSLVCKASGFTFSSYAIQWVRQAPGKGLEWVAGISDDGSWTGYGAAVKGRATISRDNGQSTMRLQLNNLRAEDTGIYYCAKGAGTGYCANRSFGCASTIDAWGHGTEVIVSS VL: ALTQPSSVSANLGETVEITCSGSRGSYGWYQQKSPGSAPVTVIYYNVKRPSDIPSRFSGSKSGSTGTLTITGVQAEDEAVYYCGSADRSGAGIFGAGTTLTVL | 140 nM | no binding | no binding
4 | NAVICA9L3 (scFv, V domains shown, Chicken scFv; also called anti-CAIX scFv NAVICA9L3; clone NAVICA9L3; not shown: linker; tags from the pComb3X vector (purified on Ni2+ Sepharose, detected with anti-HA)) VH: AVTLDESGGGLQTPGGALSLVCKASGFTFSSFNMFWVRQAPGKGLEYVAAISSDGSRSRYGSAVQGRATISRDNGQSTVRLQLNSLRAEDTGTYYCAKRPYSGCTSNNFCFNAAYIDVWGHGTEVIVSS VL: ALTQPSSVSANLGETVEITCSGSSGSYGWYQQKSPGSAPVTVIYYNDKRPSDIPSRFSGSKSGSTGTLTITGVQAEDEAVYYCGSADRSGAGIFGAGTTLTVL | 9.26 nM |  | 
